Entries after “also recorded” stand apart in the source; their conditions may differ.
What was measured:
BMP-6 gene expression = BMP-6 gene expression in wildtype brown adipocytes; format: cell-based, mouse; details: acute treatment
WT brown preadipocytes = assay: Brown adipocyte differentiation, Oil Red O staining; format: cell-based, mouse; details: for differentiation of brown preadipocytes, agent alone: brown preadipocyte cell line, single agent; for lipid accumulation as monitored by Oil Red O staining (brown adipocyte differentiation): 33 nM BMP, 10 days, absence of induction cocktail; for differentiation of brown preadipocytes, BMP plus insulin and T3: combination of BMP-6 or -7 plus insulin and T3
Experimental: (§1) Preadipocytes were grown to confluence (day 0) in differentiation medium (Dulbecco's modified […] medium containing 10% Fetal Bovine Serum supplemented with 20 nM insulin and 1 nM T3). Adipocyte differentiation was induced by treating confluent cells for 48 hours in differentiation medium further supplemented with 0.5 mM isobutylmethylxanthine (IBMX), 0.5 mM dexamethazone, and 0.125 mM indomethacin. After this induction period (day 2), cells were placed back to differentiation medium, which was then changed every second day.
(§2) Dishes were washed twice with phosphate-buffered saline and fixed with 10% buffered formalin for at least 1 hour at room temperature. Cells were then stained for 2 hours at room temperature with a filtered oil red 0 solution (0.5% oil red 0 in isopropyl alcohol), washed twice with distilled water, and visualized.
Brown fat precursor cells were isolated from intrascapular brown fat of newborn mice and immortalized by SV40 T antigen.
To begin to explore the role of BMPs on brown adipogenesis, the effect of six different BMPs on differentiation of WT brown preadipocytes was examined. In the absence of induction cocktail, 33 nM of BMPs were added to the normal culture medium and fresh medium was changed every 2 days.

[1] = system: white preadipocytes (3T3-L1 cells); assay: White preadipocyte differentiation, Oil Red O staining; format: cell-based; details: for insulin- and insulin/T3-induced differentiation of 3T3-L1 cells: BMP alone or combined with insulin
Experimental: as §1, §2

PPARγ = PPARγ mRNA and protein expression in brown preadipocytes; format: cell-based, mouse
Text: (§3) PGC-1∀ and UCP-1 are two decisive cellular markers of brown adipocytes.

UCP-1 = UCP-1 protein expression by Western blot in brown preadipocytes; format: cell-based, mouse; details: combination of 20 nM insulin, 1 nM T3 and 8.3 nM BMP-7
Text: as §3

UCP-1 promoter = assay: UCP-1 expression reporter gene (UCP-1 promoter linked to firefly luciferase); format: cell-based; details: 10 uM TZD and retinoic acid, presence of PPARγ and RxRa
Text: Adaptive thermogenesis is an important component of energy homeostasis and a metabolic defense against obesity.

[2] = system: mouse embryonic fibroblasts (MEFs); assay: Adipogenesis in mouse embryonic fibroblasts, Oil Red O staining; format: cell-based; details: MEF cells, 1 μM rosiglitazone plus BMP, 10 days
Experimental: To examine whether BMPs play a role in determining the fate of pluripotent stem cells toward brown adipocyte lineage, murine pluripotent cells, the effect of BMPs on adipogenesis was evaluated in mouse embryonic fibroblasts (MEFs), which were generated lab using the 3T3 protocol of Todaro and Green (J. Cell. Biol. 17:299-313 (1963)). The MEF cells were maintained in Dulbecco's Modified Eagle Medium (DMEM) supplemented with 10% FBS.
(§4) MEF cells were grown in culture media containing 1 μM of rosiglitazone, BMPs, or a combination of both for 10 days. Oil Red O staining was performed at the end of differentiation to monitor the degree of adipogenesis. […] Whole cell lysates were isolated from these cells to examine the expression of the adipogenic marker FAS (fatty acid synthase).

[3] = system: FAS (fatty acid synthase); assay: FAS protein expression in MEF whole cell lysates; format: cell-based, mouse; details: MEF cells, presence of induction cocktail or TZD
Experimental: as §4

Smad 1/5/8 = assay: BMP signaling in WT brown preadipocytes, phospho-specific antibody Western blot; format: cell-based, mouse
Experimental: (§5) Brown fat precursor cells were isolated from intrascapular brown fat of newborn mice and immortalized by SV40 T antigen. […] Following differentiation with an induction cocktail of 20 nM insulin, 1 nM thyroid hormone [3,5,3′-triiodothyronine (T3)], 0.5 μM dexamethazone, 0.125 mM indomethacin, and 0.5 mM isobutylmethylxanthine, pre-adipocytes became smaller, rounded up, accumulated fat, and the cytoplasm/nuclear-ratio increased dramatically. Once fully differentiated, multi-locular fat droplets could be detected both microscopically and by Oil Red-O staining. Expression of UCP-1 was detected at basal state and upon β-adrenergic stimulation, confirming the features of brown adipocytes (methods described in Klein et al., J. Biol. Chem. 274:34795-34802 (1999)).
(§6) To see if BMPs were able to transmit signals into these cells, the WT brown preadipocytes were treated with recombinant BMP-6 (R&D Systems).

p38 MAPK = assay: as above; format: cell-based, mouse; details: WT brown preadipocytes treated with recombinant BMP-6, phospho-specific antibodies (Thr180/Tyr182)
Experimental: as §5, §6

[4] = system: IRS-1 KO brown preadipocytes; assay: Differentiation of IRS-1 knockout brown preadipocytes; format: cell-based, mouse
Experimental: as §1, §2
These factors utilize a complex signaling pathway to exert their pleiotropic biological effects involving activation of their respective cell surface receptors and phosphorylation of several intracellular insulin/IGF-1 receptor substrates (IRS). To determine the role of this signaling pathway in the regulation of brown adipogenesis and metabolism, brown preadipocyte cell lines were generated from wild-type (WT) and different IRS knockout (KO) mice (Fasshauer et al., Mol Cell Biol 21:319-329 (2001); Tseng et al., J Biol. Chem. 277:31601-31611 (2002); Tseng et al., Mol Cell Biol 24:1918-1929 (2004)). These cells were studied in both their fibroblastic and differentiated states. […] This occurred not only at the levels of lipid accumulation, but also involved blockade of the normal pattern of progression in the transcriptional regulators of adipogenesis, such as C/EBPα and PPARγ, as well as thermogenic marker UCP-1.
The differentiation inductive effect of BMP-6 is more easily seen in brown adipocytes from IRS-1 knockout animals, which are known to have a defect in adipocyte differentiation. […]

PGC-1a = PGC-1a mRNA expression by quantitative RT-PCR in brown preadipocytes; format: cell-based, mouse
Text: as §3

[5] = system: Pref-1 (preadipocyte factor-1); assay: Pref-1 expression by quantitative RT-PCR in IRS-1 KO cells; format: cell-based, mouse; details: 30 nM over six days
Text: IRS-1 signalling plays an important role in insulin resistance, which is a hallmark of Type II diabetes.

[6] = standard induction conditions (W induction)

How did the BMP-6 gene expression (BMP-6 gene expression) turn out when “IGF-1: known inducer of adipocyte differentiation” was run?
Its BMP-6 gene expression is “acutely induce”.

N[C@@H](Cc1cc(I)c(Oc2ccc(O)c(I)c2)c(I)c1)C(=O)O [T3, 3,5,3′-triiodothyronine, reference compound] was tested. Which “differentiation of brown preadipocytes, agent alone” value (shortened to “differentiation … agent alone”) (WT brown preadipocytes) did it give?
Its value is “pro-differentiative effects”.

How did the “differentiation … agent alone” value (WT brown preadipocytes) turn out when “insulin: known inducer of adipocyte differentiation” was run?
The value was “pro-differentiative effects”.

What about the BMP-6 gene expression (BMP-6 gene expression) of the same molecule?
Its BMP-6 gene expression is “acutely induce”.

B1: BMP-3: bone morphogenetic protein 3, added at 33 nM to culture medium (protein, UniProt P12645 363-472, looked up)
Bone morphogenetic protein 3: QWIEPRNCARRYLKVDFADIGWSEWIISPKSFDAYYCSGACQFPMPKSLKPSNHATIQSIVRAVGVVPGIPEPCCVPEKMSSLSILFFDENKNVVLKVYPNMTVESCACR
With B1 as the molecule, how does the “lipid accumulation as monitored by Oil Red O staining (brown adipocyte differentiation)” value (WT brown preadipocytes) read?
Its value is “no effect”.

B2: BMP-5: bone morphogenetic protein 5, added at 33 nM to culture medium (protein, listed as Homo sapiens)
chain: NQNRNKSSSHQDSSRMSSVGDYNTSEQKQACKKHELYVSFRDLGWQDWIIAPEGYAAFYCDGECSFPLNAHMNATNHAIVQTLVHLMFPDHVPKPCCAPTKLNAISVLYFDDSSNVILKKYRNMVVRSCGCH
With B2 as the molecule, how does the “lipid accumulation as monitored by Oil Red O staining (brown adipocyte differentiation)” value (WT brown preadipocytes) read?
The value was “weaker effect”.

B3: BMP-4: bone morphogenetic protein 4, added at 33 nM to culture medium (protein, listed as Homo sapiens)
chain: SPKHHSQRARKKNKNCRRHSLYVDFSDVGWNDWIVAPPGYQAFYCHGDCPFPLADHLNSTNHAIVQTLVNSVNSSIPKACCVPTELSAISMLYLDEYDKVVLKNYQEMVVEGCGCR
With B3 as the molecule, how does the “lipid accumulation as monitored by Oil Red O staining (brown adipocyte differentiation)” value (WT brown preadipocytes) read?
The value was “substantial increase in lipid accumulation”.

B4: BMP-7: bone morphogenetic protein 7 (protein, listed as Homo sapiens)
chain: STGSKQRSQNRSKTPKNQEALRMANVAENSSSDQRQACKKHELYVSFRDLGWQDWIIAPEGYAAYYCEGECAFPLNSYMNATNHAIVQTLVHFINPETVPKPCCAPTQLNAISVLYFDDSSNVILKKYRNMVVRACGCH
How did the “lipid accumulation as monitored by Oil Red O staining (brown adipocyte differentiation)” value (WT brown preadipocytes) turn out when B4 was run?
The value was “substantial increase in lipid accumulation”.

And the “differentiation … agent alone” value (WT brown preadipocytes)?
Its value is “pro-differentiative effects”.

And the “differentiation of brown preadipocytes, BMP plus insulin and T3” value (WT brown preadipocytes)?
Its value is “strongly enhanced”.

And the “differentiation of brown preadipocytes, insulin plus B7” value (WT brown preadipocytes; combination with insulin)?
Its value is “strong combination effects”.

And the “insulin- and insulin/T3-induced differentiation of 3T3-L1 cells” value [1]?
Its value is “Little to no effect”.

What about the “PPARγ expression, combination treatments” value (PPARγ; combination of 20 nM insulin, 1 nM T3 and 8.3 nM BMP-7, Western blot) of the same molecule?
The value was “strongest induction”.

What about the “UCP-1 expression, combination treatments” value (UCP-1) of the same molecule?
Its value is “strongest induction”.

And the “TZD/RA-induced stimulation of UCP-1 promoter activity” value (UCP-1 promoter)?
Its value is “enhanced”.

And the “TZD effects on adipocyte differentiation (Oil Red O)” value [2]?
The value was “potentiated the TZD effects”.

And the FAS protein expression [3]?
The FAS protein expression was “induced FAS protein expression”.

B5: BMP-6: Recombinant human BMP-6 (R & D Systems, MN) (protein, listed as Homo sapiens)
chain: RSASSRRRQQSRNRSTQSQDVARVSSASDYNSSELKTACRKHELYVSFQDLGWQDWIIAPKGYAANYCDGECSFPLNAHMNATNHAIVQTLVHLMNPEYVPKPCCAPTKLNAISVLYFDDNSNVILKKYRNMVVRACGCH
For B5, which “activation of Smad 1/5/8” value (Smad 1/5/8; WT brown preadipocytes treated with recombinant BMP-6) is on record?
Its value is “quickly activated”.

And the “activation of Smad 1/5/8” value (Smad 1/5/8; WT brown preadipocytes treated with recombinant BMP-6, listed as BMP6)?
The value was “activation”.

What about the “activation of p38 MAPK” value (p38 MAPK) of the same molecule?
The value was “quickly activated”.

And the “activation of p38 MAPK” value (p38 MAPK; listed as BMP6)?
The value was “activation”.

What about the “morphology of wild-type brown pre-adipocytes” value (WT brown preadipocytes) of the same molecule?
Its value is “cause changes in the morphology”.

What about the “lipid accumulation as monitored by Oil Red O staining (brown adipocyte differentiation)” value (WT brown preadipocytes) of the same molecule?
Its value is “substantial increase in lipid accumulation”.

What about the “differentiation of wildtype brown preadipocytes, without induction” value (WT brown preadipocytes; absence of standard induction conditions (W/O induction)) of the same molecule?
Its value is “increased the level of brown adipocyte differentiation”.

And the “differentiation … agent alone” value (WT brown preadipocytes)?
The value was “pro-differentiative effects”.

And the “differentiation of brown preadipocytes, BMP plus insulin and T3” value (WT brown preadipocytes)?
The value was “strongly enhanced”.

What about the “differentiation of wildtype brown preadipocytes, with induction” value (WT brown preadipocytes; [6]) of the same molecule?
The value was “enhance differentiation; also recorded: enhanced the level of differentiation”.

And the “acceleration of differentiation (Oil Red O staining)” value (WT brown preadipocytes; wild-type brown adipocytes, presence of induction cocktail)?
Its value is 1 to 2 days.

And the “differentiation of white preadipocytes” value ([1]; 33 nM, 8 days)?
The value was “did not induce differentiation”.

What about the “insulin- and insulin/T3-induced differentiation of 3T3-L1 cells” value [1] of the same molecule?
Its value is “Little to no effect”.

And the “WAT differentiation (3T3-L1), without induction” value ([1]; W/O induction)?
The value was “no change”.

And the “differentiation of 3T3-L1 cells, with induction” value [1, 6]?
Its value is “inhibited the level of differentiation”.

What about the “differentiation of IRS-1 KO brown preadipocytes” value ([4]; 30 nM over six days) of the same molecule?
Its value is “restores the defects in differentiation”.

And the “BAT differentiation of IRS-1 knockout preadipocytes, without induction” value ([4]; W/O induction)?
The value was “no change”.

And the “differentiation of IRS-1 knockout brown preadipocytes, with induction” value [4, 6]?
The value was “rescue, at least partially; also recorded: enhanced the level of differentiation”.

What about the “PGC-1a mRNA expression at day 3” value (PGC-1a; Q-RT-PCR, day 3) of the same molecule?
Its value is “quickly induced”.

What about the “PGC-1a mRNA expression as differentiation progressed to day 9” value (PGC-1a; Q-RT-PCR, to day 9) of the same molecule?
Its value is “further increased”.

What about the “expression of PGC-1 during spontaneous differentiation” value (PGC-1a; addition of recombinant BMP-6) of the same molecule?
The value was “induced expression”.

What about the “PGC-1a mRNA expression at 0, 3, and 6 days after treatment” value (PGC-1a; quantitative RT-PCR, FIG. 3) of the same molecule?
Its value is “increase”.

What about the PPARγ protein expression (PPARγ; BMP-6 treatment, course of differentiation (0, 3, 6 days), Western blot) of the same molecule?
The PPARγ protein expression was “markedly induced; also recorded: approximately maximal by day 3; also recorded: increase”.

And the “PPARγ mRNA expression” value (PPARγ; BMP-6 treatment, course of differentiation (0, 3, 6 days), quantitative RT-PCR)?
Its value is “markedly induced; also recorded: approximately maximal by day 3; also recorded: increase”.

What about the “expression of PPARγ during spontaneous differentiation” value (PPARγ; addition of recombinant BMP-6) of the same molecule?
Its value is “induced expression”.

What about the Pref-1 expression [5] of the same molecule?
The Pref-1 expression was “down-regulation”.

And the “TZD effects on adipocyte differentiation (Oil Red O)” value [2]?
Its value is “potentiated the TZD effects”.

And the FAS protein expression [3]?
Its FAS protein expression is “induced FAS protein expression”.

Reference: patent US9132169B2, “Methods and compositions for modulating adipocyte function” (Joslin Diabetes Center, Inc., priority 2003, dated 2015)
